# Laboratory results from patent US20190022211A1 (CELLTRION, published 2019).
# Values joined by “and” are separate entries in the source; they are usually repeats but may differ in a detail not shown here. Equal values may be shown once.
# T1: G protein of rabies virus CVS-11 strain (on virus) (rabies virus CVS-11 strain, UniProt O92284 20-524)
# T1 sequence: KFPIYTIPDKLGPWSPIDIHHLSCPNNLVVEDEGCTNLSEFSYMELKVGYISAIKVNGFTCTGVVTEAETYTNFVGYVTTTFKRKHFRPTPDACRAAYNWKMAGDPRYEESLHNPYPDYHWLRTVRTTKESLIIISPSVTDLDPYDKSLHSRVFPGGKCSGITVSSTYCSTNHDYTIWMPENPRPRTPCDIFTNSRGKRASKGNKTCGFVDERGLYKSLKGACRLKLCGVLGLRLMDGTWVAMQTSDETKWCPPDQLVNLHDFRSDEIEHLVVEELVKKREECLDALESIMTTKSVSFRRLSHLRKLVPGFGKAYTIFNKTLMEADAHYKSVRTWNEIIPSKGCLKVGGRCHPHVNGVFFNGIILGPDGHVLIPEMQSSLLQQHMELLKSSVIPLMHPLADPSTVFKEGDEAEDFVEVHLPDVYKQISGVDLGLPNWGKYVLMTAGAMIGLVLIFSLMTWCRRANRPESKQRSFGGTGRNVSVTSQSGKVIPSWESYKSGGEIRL
# T2: G protein of rabies virus ERA, on virus (rabies virus, UniProt P03524 20-524)
# T2 sequence: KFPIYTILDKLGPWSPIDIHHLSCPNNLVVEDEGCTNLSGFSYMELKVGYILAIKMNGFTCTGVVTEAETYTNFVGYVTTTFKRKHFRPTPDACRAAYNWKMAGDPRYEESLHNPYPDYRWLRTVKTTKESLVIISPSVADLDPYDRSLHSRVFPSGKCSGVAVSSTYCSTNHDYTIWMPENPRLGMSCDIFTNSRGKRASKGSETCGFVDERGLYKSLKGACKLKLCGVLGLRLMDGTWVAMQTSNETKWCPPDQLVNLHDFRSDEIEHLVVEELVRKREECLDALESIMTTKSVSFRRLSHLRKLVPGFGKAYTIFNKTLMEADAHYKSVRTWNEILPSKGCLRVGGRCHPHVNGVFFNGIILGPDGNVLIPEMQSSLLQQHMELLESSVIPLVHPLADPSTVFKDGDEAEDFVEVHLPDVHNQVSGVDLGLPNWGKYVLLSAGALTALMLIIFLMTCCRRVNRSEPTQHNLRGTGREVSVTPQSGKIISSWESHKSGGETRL
# B1: antibody 1 (antibody, V domains shown)
# VH: VQLLQESGPGLAKPSETLSLICTVSGGSISRRRDYWGWIRQPPGRGLEWIGSFFHRGSTYYNPSLESRVSISVDPSKNQFSLHLSSVTVADTAVYYCARHPSTPFAEYLLLPDAFDSWGQGTLVTVSS
# VL: DIVMTQSPATLSVSPGERATLSCRASQSVRSSLAWYQQRPGQAPRLLISGASTRATDIPARLSGSGSGTEFTLTVSSLQSEDFAVYYCQQYSDWPLTFGGGTKVEIKR
# B2: antibody 2 (antibody, V domains shown)
# VH: EVQLVESGAEVKKPGASVKVSCKASGYTFTSYDISWVRQAPGQGLEWMGWISTYKGNTNFAQKFQDRVTLTTDTSTTTAYMELRSLTSDDTAVYYCARAKSHPFYDFWSAYYVPGAFDIWGQGTVVTVSS
# VL: not shown
# Legend:
# Experiment in all cases: cell-based or functional assay
# [1] = biological target: T1, G protein of rabies virus CVS-11 strain …
# [2] = biological target: G protein of rabies virus AL Bat (Bat, California, USA), on virus (rabies virus)
# [3] = biological target: G protein of rabies virus phi dog (Human/dog, Philippines), on virus (rabies virus)
# [4] = biological target: G protein of rabies virus Rv342 China (Cow/dog, China), on virus (rabies virus)
# [5] = biological target: G protein of rabies virus Gray FX-AZ (AZ fox) (Gray Fox, Arizona, USA), on virus (rabies virus)
# [6] = biological target: G protein of rabies virus 323R (Dog/Coyote, Texas, USA), on virus (rabies virus)
# [7] = biological target: G protein of rabies virus TN410 (Bat, Tennessee, USA), on virus (rabies virus)
# [8] = biological target: G protein of rabies virus TX SK 4380 (Skunk, Texas, USA), on virus (rabies virus)
# [9] = biological target: G protein of ABV (SM 4476) (Australian bat lyssa, Genotype 7), on virus (Australian bat lyssa, Genotype 7)
# [10] = biological target: G protein of rabies virus 3860 CA Bat (Bat, California, USA), on virus (rabies virus)
# [11] = biological target: G protein of EBLV 1 A09-3484 (Genotype 5), on virus (EBLV 1, Genotype 5)
# [12] = biological target: G protein of EBLV 2 A03-4659 (Genotype 6), on virus (EBLV 2, Genotype 6)
# [13] = biological target: G protein of Duvenhage (Genotype 4), on virus (Duvenhage, Genotype 4)
# [14] = biological target: G protein of EBLV 1 A09-3485 (Genotype 5), on virus (EBLV 1, Genotype 5)
# [15] = biological target: G protein of EBLV 2 A09-3483 (Genotype 6), on virus (EBLV 2, Genotype 6)
# [16] = biological target: G protein of rabies virus CASK (Skunk, California, USA), on virus (rabies virus)
# [17] = biological target: G protein of rabies virus Dog son (Dog, Mexico), on virus (rabies virus)
# [18] = biological target: G protein of rabies virus LC NY (Bat, New York, USA), on virus (rabies virus)
# [19] = biological target: G protein of rabies virus 857r (Raccoon dog, Russia, Far East), on virus (rabies virus)
# [20] = biological target: G protein of rabies virus Phi 002 (231) (Human/dog, Philippines), on virus (rabies virus)
# [21] = biological target: T2, G protein of rabies virus ERA, on virus
# [22] = biological target: G protein of rabies virus WA Bat (Bat, Washington, USA), on virus (rabies virus)
binder,measurement,setting,value
B1,neutralizing activity (RFFIT),[1],0.41 IU/mL and 2060 IU/mg
same,"neutralizing activity (RFFIT), Titer",[1],70
same,neutralizing activity (RFFIT),[2],7.6 IU/mL and 7590 IU/mg
same,"neutralizing activity (RFFIT), Titer",[2],1100
same,neutralizing activity (RFFIT),[3],0.28 IU/mL and 1390 IU/mg
same,"neutralizing activity (RFFIT), Titer",[3],75
same,neutralizing activity (RFFIT),[4],0.5 IU/mL and 2540 IU/mg
same,"neutralizing activity (RFFIT), Titer",[4],280
same,neutralizing activity (RFFIT),[5],0.53 IU/mL and 2670 IU/mg
same,"neutralizing activity (RFFIT), Titer",[5],16
same,neutralizing activity (RFFIT),[6],0.33 IU/mL and 1670 IU/mg
same,"neutralizing activity (RFFIT), Titer",[6],60
same,neutralizing activity (RFFIT),[7],0.51 IU/mL and 2530 IU/mg
same,"neutralizing activity (RFFIT), Titer",[7],19
same,neutralizing activity (RFFIT),[8],0.4 IU/mL and 2000 IU/mg
same,"neutralizing activity (RFFIT), Titer",[8],50
same,neutralizing activity (RFFIT),[9],0.4 IU/mL and 2000 IU/mg
same,"neutralizing activity (RFFIT), Titer",[9],54
same,neutralizing activity (RFFIT),[10],0.4 IU/mL and 2000 IU/mg
same,"neutralizing activity (RFFIT), Titer",[10],56
same,neutralizing activity (RFFIT),[11],0.56 IU/mL and 2800 IU/mg
same,"neutralizing activity (RFFIT), Titer",[11],56
same,neutralizing activity (RFFIT),[12],0.6 IU/mL and 3000 IU/mg
same,"neutralizing activity (RFFIT), Titer",[12],54
same,neutralizing activity (RFFIT),[13],0.44 IU/mL and 2200 IU/mg
same,"neutralizing activity (RFFIT), Titer",[13],13
same,neutralizing activity (RFFIT),[14],1.85 IU/mL and 9260 IU/mg
same,"neutralizing activity (RFFIT), Titer",[14],50
same,neutralizing activity (RFFIT),[15],2.22 IU/mL and 11100 IU/mg
same,"neutralizing activity (RFFIT), Titer",[15],50
same,neutralizing activity (RFFIT),[16],0.4 IU/mL and 2000 IU/mg
same,"neutralizing activity (RFFIT), Titer",[16],50
same,neutralizing activity (RFFIT),[17],2.7 IU/mL and 2720 IU/mg
same,"neutralizing activity (RFFIT), Titer",[17],340
same,neutralizing activity (RFFIT),[18],0.52 IU/mL and 2620 IU/mg
same,"neutralizing activity (RFFIT), Titer",[18],11
same,neutralizing activity (RFFIT),[19],2.8 IU/mL and 2800 IU/mg
same,"neutralizing activity (RFFIT), Titer",[19],56
same,neutralizing activity (RFFIT),[20],2.5 IU/mL and 2500 IU/mg
same,"neutralizing activity (RFFIT), Titer",[20],250
same,neutralizing activity (RFFIT),[21],0.36 IU/mL and 1790 IU/mg
same,"neutralizing activity (RFFIT), Titer",[21],50
same,neutralizing activity (RFFIT),[22],2.2 IU/mL and 2160 IU/mg
same,"neutralizing activity (RFFIT), Titer",[22],270
B2,neutralizing activity (RFFIT),[1],1.47 IU/mL and 7350 IU/mg
same,"neutralizing activity (RFFIT), Titer",[1],250
same,neutralizing activity (RFFIT),[2],7.6 IU/mL and 7590 IU/mg
same,"neutralizing activity (RFFIT), Titer",[2],1100
same,neutralizing activity (RFFIT),[3],1.04 IU/mL and 5180 IU/mg
same,"neutralizing activity (RFFIT), Titer",[3],280
same,neutralizing activity (RFFIT),[4],2.4 IU/mL and 11800 IU/mg
same,"neutralizing activity (RFFIT), Titer",[4],1300
same,neutralizing activity (RFFIT),[5],5.67 IU/mL and 28300 IU/mg
same,"neutralizing activity (RFFIT), Titer",[5],170
same,neutralizing activity (RFFIT),[6],3.47 IU/mL and 17400 IU/mg
same,"neutralizing activity (RFFIT), Titer",[6],625
same,neutralizing activity (RFFIT),[7],5.33 IU/mL and 26700 IU/mg
same,"neutralizing activity (RFFIT), Titer",[7],200
same,neutralizing activity (RFFIT),[8],0.56 IU/mL and 2800 IU/mg
same,"neutralizing activity (RFFIT), Titer",[8],70
same,neutralizing activity (RFFIT),[9],1.56 IU/mL and 7780 IU/mg
same,"neutralizing activity (RFFIT), Titer",[9],210
same,neutralizing activity (RFFIT),[10],1.5 IU/mL and 7500 IU/mg
same,"neutralizing activity (RFFIT), Titer",[10],210
same,neutralizing activity (RFFIT),[11],5.4 IU/mL and 27000 IU/mg
same,"neutralizing activity (RFFIT), Titer",[11],540
same,neutralizing activity (RFFIT),[12],3.11 IU/mL and 15600 IU/mg
same,"neutralizing activity (RFFIT), Titer",[12],280
same,neutralizing activity (RFFIT),[13],7.2 IU/mL and 36000 IU/mg
same,"neutralizing activity (RFFIT), Titer",[13],180
same,neutralizing activity (RFFIT),[14],6.67 IU/mL and 33300 IU/mg
same,"neutralizing activity (RFFIT), Titer",[14],180
same,neutralizing activity (RFFIT),[15],5.56 IU/mL and 27800 IU/mg
same,"neutralizing activity (RFFIT), Titer",[15],125
same,neutralizing activity (RFFIT),[16],0.43 IU/mL and 2160 IU/mg
same,"neutralizing activity (RFFIT), Titer",[16],54
same,neutralizing activity (RFFIT),[17],8.8 IU/mL and 8800 IU/mg
same,"neutralizing activity (RFFIT), Titer",[17],1100
same,neutralizing activity (RFFIT),[18],2.14 IU/mL and 10700 IU/mg
same,"neutralizing activity (RFFIT), Titer",[18],45
same,neutralizing activity (RFFIT),[19],2.7 IU/mL and 2700 IU/mg
same,"neutralizing activity (RFFIT), Titer",[19],54
same,neutralizing activity (RFFIT),[20],2.5 IU/mL and 2500 IU/mg
same,"neutralizing activity (RFFIT), Titer",[20],250
same,neutralizing activity (RFFIT),[21],1.79 IU/mL and 8930 IU/mg
same,"neutralizing activity (RFFIT), Titer",[21],250
same,neutralizing activity (RFFIT),[22],2 IU/mL and 2000 IU/mg
same,"neutralizing activity (RFFIT), Titer",[22],250
